Laboratory results published in patent US20070161569A1 (GENERAL HOSPITAL, published 2007).
“And” between values parts separate entries of the source, which are not always exact repeats. Identical values can stand only once. Non-standard residues stand in square brackets, D forms with d. No end group written: not given here. hArg = N=C(N)NCCCC[C@H](N)C(=O)O; Ac5c = NC1(C(=O)O)CCCC1; Deg = CCC(N)(CC)C(=O)O; Ac3c = NC1(C(=O)O)CC1; Aib = CC(C)(N)C(=O)O

Tests used:
[1] = target: T1, recombinant P1R chimera expressed in HKRK-B28 cells (opossum P1R from the N-terminus to the mid region of … (opossum; rat, UniProt P25107 27-288; P25961 295-591, limits assumed); experiment: competition binding on B28 cells against 125I-PTH(1-21) tracer (SEQ ID NO 36)
T1 construct: domain: N-terminus to the mid region of TM3;domain: mid region of TM3 to the C-terminus; also called PTH-1 receptor; receptor of HKRK-B28 cells
T1 sequence (P25107 other isoform, or with tags, fused parts or gaps limits assumed): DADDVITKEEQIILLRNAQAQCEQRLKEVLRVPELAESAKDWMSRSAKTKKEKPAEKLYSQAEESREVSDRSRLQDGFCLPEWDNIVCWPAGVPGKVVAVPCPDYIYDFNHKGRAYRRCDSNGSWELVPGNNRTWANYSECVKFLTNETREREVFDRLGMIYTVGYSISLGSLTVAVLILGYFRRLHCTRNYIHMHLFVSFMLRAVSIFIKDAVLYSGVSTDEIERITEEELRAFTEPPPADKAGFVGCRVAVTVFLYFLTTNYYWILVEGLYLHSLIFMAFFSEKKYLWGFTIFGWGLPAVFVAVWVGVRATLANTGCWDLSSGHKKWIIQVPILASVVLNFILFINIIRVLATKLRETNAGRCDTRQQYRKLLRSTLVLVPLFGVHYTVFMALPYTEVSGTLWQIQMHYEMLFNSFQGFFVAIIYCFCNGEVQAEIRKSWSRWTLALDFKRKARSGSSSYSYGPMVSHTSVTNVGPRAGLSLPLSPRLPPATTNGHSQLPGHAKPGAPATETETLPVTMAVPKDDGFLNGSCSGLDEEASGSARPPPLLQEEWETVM
Method: (§1) Competition Binding. Binding reactions were performed with HKRK-B28 cells or in COS-7 cells in 24-well plates. The cells were rinsed with 0.5 mL of binding buffer, and then treated successively with 100 μL binding buffer, 100 μL of binding buffer containing various amounts of unlabeled competitor ligand, and 100 μL of binding buffer containing ca. 100,000 cpm of ¹²⁵I-[Aib^{1,3},Nle⁸,Gln¹⁰,Har¹¹,Ala¹²,Trp¹⁴,Arg¹⁹,Tyr²¹]rPTH(1-21) (SEQ. ID. NO. 36) (ca. 26 fmol; final volume=300 μL). Incubations were 4 to 6 h at 4° C., at which time near equilibrium conditions were attained. Cells were then placed on ice, the binding medium was removed, and the monolayer was rinsed three times with 0.5 mL of cold binding buffer. The cells were subsequently lysed with 0.5 mL 5N NaOH and counted for radioactivity. For each tracer and in each experiment, the non-specific binding was determined as the radioactivity that bound in the presence of the same unlabeled peptide at a concentration of 1 μM, and was ˜1% of total radioactivity added for each tracer. The maximum specific binding (B₀) was the total radioactivity bound in the absence of competing ligand, corrected for nonspecific binding, and for each tracer, ranged from 8% to 20% of the total radioactivity added. Nonlinear regression was used to calculate binding IC₅₀ values (see below). Scatchard transformations of homologous competition binding data derived from studies with 26 fmol of ¹²⁵I-[Aib^{1,3},Nle⁸,Gln¹⁰,Har¹¹,Ala¹²,Trp¹⁴, Arg¹⁹,Tyr²¹]rPTH(1-21) (SEQ. ID. NO. 36) were employed for estimations of apparent equilibrium dissociation constant (kDapps) and total number of ligand binding sites (Bₘₐₓ), assuming a single class of binding sites and equal affinities of the iodinated and non iodinated ligand.

[2] = target: T1, recombinant P1R chimera expressed in …; experiment: cell-based or functional assay
[3] = target: T2, P1R-delNt, a recombinant human PTH-1 receptor construct in which most of the amino-terminal extracellular … (human, UniProt Q03431 23-593, limits assumed); experiment: cell-based or functional assay
T2 sequence (looked up): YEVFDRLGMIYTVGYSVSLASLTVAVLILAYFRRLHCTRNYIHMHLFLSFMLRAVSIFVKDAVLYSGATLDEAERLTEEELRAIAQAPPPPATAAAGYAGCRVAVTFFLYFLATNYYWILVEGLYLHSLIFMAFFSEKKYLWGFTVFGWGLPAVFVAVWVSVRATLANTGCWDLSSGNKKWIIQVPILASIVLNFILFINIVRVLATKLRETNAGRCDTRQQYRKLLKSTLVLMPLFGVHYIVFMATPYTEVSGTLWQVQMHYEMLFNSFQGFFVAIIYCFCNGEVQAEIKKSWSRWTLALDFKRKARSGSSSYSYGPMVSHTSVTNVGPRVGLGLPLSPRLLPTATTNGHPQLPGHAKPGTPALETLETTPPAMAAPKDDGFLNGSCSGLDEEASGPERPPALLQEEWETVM

[4] = target: T1, recombinant P1R chimera expressed in …; experiment: competition binding on HKRK-B28 cells against 125I-PTH(1-21) tracer (SEQ ID NO 36)
Method: as §1, with “Incubations” for “Competition Binding. Binding reactions were performed with HKRK-B28 cells or in COS-7 cells in 24-well plates. The cells were rinsed with 0.5 mL of binding buffer, and then treated successively with 100 μL binding buffer, 100 μL of binding buffer containing various amounts of unlabeled competitor ligand, and 100 μL of binding buffer containing ca. 100,000 cpm of ¹²⁵I-[Aib^{1,3},Nle⁸,Gln¹⁰,Har¹¹,Ala¹²,Trp¹⁴,Arg¹⁹,Tyr²¹]rPTH(1-21) (SEQ. ID. NO. 36) (ca. 26 fmol; final volume=300 μL). Incubations”, “ligand. […]” for “ligand.”

B1: [M]PTH(1-14) analog in which alanine-3 is substituted with 1-aminocyclopentane-1-carboxylic acid (Ac5c) (peptide)
peptide: AV[Ac5c]EIQLMHQ[hArg]AKW-NH2
modifications: N-terminus assumed
SMILES: CC[C@H](C)[C@H](NC(=O)[C@H](CCC(=O)O)NC(=O)C1(NC(=O)[C@@H](NC(=O)[C@H](C)N)C(C)C)CCCC1)C(=O)N[C@@H](CCC(N)=O)C(=O)N[C@@H](CC(C)C)C(=O)N[C@@H](CCSC)C(=O)N[C@@H](Cc1c[nH]cn1)C(=O)N[C@@H](CCC(N)=O)C(=O)N[C@@H](CCCCNC(=N)N)C(=O)N[C@@H](C)C(=O)N[C@@H](CCCCN)C(=O)N[C@@H](Cc1c[nH]c2ccccc12)C(N)=O
notes: also called Ac5c^3-containing analog; Ac5c-3
[1]
  IC50: ~3000 nM
[2]
  cAMP-stimulating potency, fold increase over the parent analog: < 2 fold

B2: [Ac3c^1,M]PTH(1-14) (peptide)
peptide: [Ac3c]VAEIQLMHQ[hArg]AKW-NH2
modifications: N-terminus assumed
SMILES: CC[C@H](C)[C@H](NC(=O)[C@H](CCC(=O)O)NC(=O)[C@H](C)NC(=O)[C@@H](NC(=O)C1(N)CC1)C(C)C)C(=O)N[C@@H](CCC(N)=O)C(=O)N[C@@H](CC(C)C)C(=O)N[C@@H](CCSC)C(=O)N[C@@H](Cc1c[nH]cn1)C(=O)N[C@@H](CCC(N)=O)C(=O)N[C@@H](CCCCNC(=N)N)C(=O)N[C@@H](C)C(=O)N[C@@H](CCCCN)C(=O)N[C@@H](Cc1c[nH]c2ccccc12)C(N)=O
[2]
  cAMP accumulation, fold more potent than the parent analog: ~2 fold

B3: [Aib^1,3,Gln^10,Har^11,Ala^12,Trp^14]PTH(1-14)NH2 (peptide)
peptide: [Aib]V[Aib]EIQLMHQ[hArg]AKW-NH2
modifications: N-terminus assumed
SMILES: CC[C@H](C)[C@H](NC(=O)[C@H](CCC(=O)O)NC(=O)C(C)(C)NC(=O)[C@@H](NC(=O)C(C)(C)N)C(C)C)C(=O)N[C@@H](CCC(N)=O)C(=O)N[C@@H](CC(C)C)C(=O)N[C@@H](CCSC)C(=O)N[C@@H](Cc1c[nH]cn1)C(=O)N[C@@H](CCC(N)=O)C(=O)N[C@@H](CCCCNC(=N)N)C(=O)N[C@@H](C)C(=O)N[C@@H](CCCCN)C(=O)N[C@@H](Cc1c[nH]c2ccccc12)C(N)=O
[3]
  cAMP EC50 in LdelNt-2 cells: 6.4 nM

B4: [Ac5c^1,M]PTH(1-14) (peptide)
peptide: [Ac5c]VAEIQLMHQ[hArg]AKW-NH2
modifications: N-terminus assumed
SMILES: CC[C@H](C)[C@H](NC(=O)[C@H](CCC(=O)O)NC(=O)[C@H](C)NC(=O)[C@@H](NC(=O)C1(N)CCCC1)C(C)C)C(=O)N[C@@H](CCC(N)=O)C(=O)N[C@@H](CC(C)C)C(=O)N[C@@H](CCSC)C(=O)N[C@@H](Cc1c[nH]cn1)C(=O)N[C@@H](CCC(N)=O)C(=O)N[C@@H](CCCCNC(=N)N)C(=O)N[C@@H](C)C(=O)N[C@@H](CCCCN)C(=O)N[C@@H](Cc1c[nH]c2ccccc12)C(N)=O
notes: also called Ac5c (position 1) analog; Ac5c^1 modification
[1]
  fold improved affinity relative to the parent [M]PTH(1-14): 50 fold
[2]
  cAMP accumulation, fold more potent than the parent analog: 61 fold
  cAMP potency, fold improvement relative to parent [M]PTH(1-14): ~35 fold

B5: [Ala^1,3,12,Gln^10,Har^11,Trp^14]PTH(1-14)NH2 (peptide)
peptide: AVAEIQLMHQ[hArg]AKW-NH2
modifications: N-terminus assumed
SMILES: CC[C@H](C)[C@H](NC(=O)[C@H](CCC(=O)O)NC(=O)[C@H](C)NC(=O)[C@@H](NC(=O)[C@H](C)N)C(C)C)C(=O)N[C@@H](CCC(N)=O)C(=O)N[C@@H](CC(C)C)C(=O)N[C@@H](CCSC)C(=O)N[C@@H](Cc1c[nH]cn1)C(=O)N[C@@H](CCC(N)=O)C(=O)N[C@@H](CCCCNC(=N)N)C(=O)N[C@@H](C)C(=O)N[C@@H](CCCCN)C(=O)N[C@@H](Cc1c[nH]c2ccccc12)C(N)=O
notes: also called [M]PTH(1-14); parent
[1]
  IC50: ~3000 nM
[4]
  IC50: 27000 nM
[2]
  cAMP accumulation potency (EC50) in HKRK-B28 cells: 220 nM
  cAMP potency (EC50): 200 nM

B6: [Aib^1,3,Gln^10]PTH(1-10)NH2 (peptide)
peptide: [Aib]V[Aib]EIQLMHQ-NH2
modifications: N-terminus assumed
SMILES: CC[C@H](C)[C@H](NC(=O)[C@H](CCC(=O)O)NC(=O)C(C)(C)NC(=O)[C@@H](NC(=O)C(C)(C)N)C(C)C)C(=O)N[C@@H](CCC(N)=O)C(=O)N[C@@H](CC(C)C)C(=O)N[C@@H](CCSC)C(=O)N[C@@H](Cc1c[nH]cn1)C(=O)N[C@@H](CCC(N)=O)C(N)=O
[2]
  increase in cAMP accumulation, peptide at 1×10^-4M: 2 fold

B7: [Ac5c^1,Aib^3,Gln^10]PTH(1-10)NH2 (peptide)
peptide: [Ac5c]V[Aib]EIQLMHQ-NH2
modifications: N-terminus assumed
SMILES: CC[C@H](C)[C@H](NC(=O)[C@H](CCC(=O)O)NC(=O)C(C)(C)NC(=O)[C@@H](NC(=O)C1(N)CCCC1)C(C)C)C(=O)N[C@@H](CCC(N)=O)C(=O)N[C@@H](CC(C)C)C(=O)N[C@@H](CCSC)C(=O)N[C@@H](Cc1c[nH]cn1)C(=O)N[C@@H](CCC(N)=O)C(N)=O
[3]
  cAMP EC50 in LdelNt-2 cells: ~40000 nM and 37000 nM
[2]
  cAMP EC50 in HKRK-B28 cells: ~3000 nM
  increase in cAMP levels relative to basal, peptide at 10 µM, HKRK-B28 cells: 33 fold

B8: [Ac5c^1,Aib^3]PTH(1-9)NH2 (peptide)
peptide: [Ac5c]V[Aib]EIQLMH-NH2
modifications: N-terminus assumed
SMILES: CC[C@H](C)[C@H](NC(=O)[C@H](CCC(=O)O)NC(=O)C(C)(C)NC(=O)[C@@H](NC(=O)C1(N)CCCC1)C(C)C)C(=O)N[C@@H](CCC(N)=O)C(=O)N[C@@H](CC(C)C)C(=O)N[C@@H](CCSC)C(=O)N[C@@H](Cc1c[nH]cn1)C(N)=O
[2]
  increase in cAMP levels relative to basal, peptide at 1×10^-4M: 6 fold

B9: [Deg^1,M]PTH(1-14) (peptide)
peptide: [Deg]VAEIQLMHQ[hArg]AKW-NH2
modifications: N-terminus assumed
SMILES: CC[C@H](C)[C@H](NC(=O)[C@H](CCC(=O)O)NC(=O)[C@H](C)NC(=O)[C@@H](NC(=O)C(N)(CC)CC)C(C)C)C(=O)N[C@@H](CCC(N)=O)C(=O)N[C@@H](CC(C)C)C(=O)N[C@@H](CCSC)C(=O)N[C@@H](Cc1c[nH]cn1)C(=O)N[C@@H](CCC(N)=O)C(=O)N[C@@H](CCCCNC(=N)N)C(=O)N[C@@H](C)C(=O)N[C@@H](CCCCN)C(=O)N[C@@H](Cc1c[nH]c2ccccc12)C(N)=O
[2]
  cAMP accumulation, fold more potent than the parent analog: 11 fold

B10: [M]PTH(1-14) analog in which alanine-3 is substituted with α,α-diethylglycine (Deg) (peptide)
peptide: H-AV[Deg]EIQLMHQ[hArg]AKW-NH2
SMILES: CC[C@H](C)[C@H](NC(=O)[C@H](CCC(=O)O)NC(=O)C(CC)(CC)NC(=O)[C@@H](NC(=O)[C@H](C)N)C(C)C)C(=O)N[C@@H](CCC(N)=O)C(=O)N[C@@H](CC(C)C)C(=O)N[C@@H](CCSC)C(=O)N[C@@H](Cc1c[nH]cn1)C(=O)N[C@@H](CCC(N)=O)C(=O)N[C@@H](CCCCNC(=N)N)C(=O)N[C@@H](C)C(=O)N[C@@H](CCCCN)C(=O)N[C@@H](Cc1c[nH]c2ccccc12)C(N)=O
notes: also called Deg^3-containing analog; Deg-3
[1]
  IC50: ~3000 nM
  fold improved affinity relative to the parent [M]PTH(1-14): ~1.5 fold
[2]
  cAMP-stimulating potency, fold diminished against the parent analog: ~10 fold
  signaling potency, fold diminished relative to parent [M]PTH(1-14): ~40 fold
